This series in a line: soluble on expression in E. coli; label from the status in PepcDB or PDB records.
Turning to “MSSIGKEDIYESDGAASQVQKSEPENDNPTHPDIELISVDVDEALKKYKNRVLNLTSSDFSDSIAKKRRHAFGNNQYVLEVTGAGFSGTETAAEKLNRILYEVADLNEQIRADENLKTDLLNAEVLENLEKEVKTLQVAQSNGKTARVEHDVELPNVRTDSKVATLENRLRRIEQVIGSSVIPSAPVLDTIEDLKLRCETLNHSYVSGLEQRLNMMLTKLEKIDETRANNDIDENLDKKVDEILELMQKWDVACSSLPSNVNKVKALNRLHEQVQHFAGGLSHLKTIREKLEKEVAQGREAIIEYESQGKQEIGSVVEKLKLLEAKVADLK”, the “soluble on expression in E. coli” value is reported as “not soluble”.

Take “MVKKLYIKTNGCQMNEYDSSKMAEVLYASHGLVKTDQVEDADVILLNTCSIREKAQEKVFSQLGQWREYKAKNPHVLIGVGGCVASQEGSDIIKRAPFVDIVFGPQTLHRLPALLNERLEKNKSVVDISFPEIEKFDHLPAPRAEGPTAFVSIMEGCSKYCSFCVVPYTRGEEISRPFDDVLAECYQLASQGVREINLLGQNVNDYRGIMDNGDIADLALLIHYIAAIDGIGRIRFTTSHPLAFSENLINAYAEVPELANHLHLPVQSGSDRILSLMKRGYTALEFKSKIRKLRKIRPDIRLSTDIIVGFPGETDKDFQDTMDLVHEIGFDTSFSFIYSPRPGTPAANLPDDTPMEIKKQRLQILQNRLLMNAARYSESMIGSKQKILVTGFSKKSSQQLSGRTECNRVVNFDGPPHLIGQFIDVQISDALPNSLRGRLLEKEMQPALEHHHHHH”: the “soluble on expression in E. coli” value was “soluble”.

Turning to “AHHHHHHGSEKPRFKGHLKLLILKLLEENPLHGYGIMTRLEETFGIKVSPGAIYPILSSLRKSGLIEVAGEGKREKKLHKITEKGREYLRKHEDEVKEALEIANKLKEFSELGGKEVAQVLREVVENIDKLSEEQKAALAREFSNFVKRIKLILLGGEQYGGNNSGEPR”, the “soluble on expression in E. coli” value is “soluble”.

Take “MKKVKSIGLIETLGMVGVVEAADAALKAANVTLLGYEFNGAGYMVIKLTGDVAAVKAAVSSGAATAQKLGNLVAAHVIPRPDDQVIDTEICGKDNVPPFNGSDSEPEDGKPSGSSSEKESKESTETAVKASEPKPATATADKEEAPLEKAAPEAKDAKDTKEAPAKQASKPEAKTKSSKPTASEAKNASSPKTPEKQADSGKTAPAKTDGGNKPKSRK”: the “soluble on expression in E. coli” value was “not soluble”.

On to “MDILILFYNTMWGFPLEFRKEDLPGGCVITTDRNLIAKADAVVFHLPDLPSVMEDEIDKREGQLWVGWSLECEENYSWTKDPEFRESFDLWMGYHQEDDIVYPYYGPDYGKMLVTARREKPYKKKACMFISSDMNRSHRQEYLKELMQYTDIDSYGKLYRNCELPVEDRGRDTLLSVIGDYQFVISFENAIGKDYVTEKFFNPLLAGTVPVYLGAPNIREFAPGENCFLDICTFDSPEGVAAFMNQCYDDEALYERFYAWRKRPLLLSFTKKLEQVRSNPLIRLCQKIHELKLGGILEHHHHHH”, for which the “soluble on expression in E. coli” value is listed as “not soluble”.

As to “MKYCDFNGCHNKISKGRYCEEHKRNKPRKKKDKKNIYHHENKPFYRTDAWKFVRSKVYERENGCCQRCGRFVFGRRAHVHHVIPIKEDPILKLEENNLRLLCPVCHTIEENEDKPKKVFPSYFGSPPIKNLEHHHHHH”, the “soluble on expression in E. coli” value was “soluble”.

For “MSLETGVTNDAIIIGQSAAMSGPAGKLGQQMNLGAKLYFKSINAAGGIYGRKIELKVLDDFYEPEAAERNTKTLINDTKVFALFGYVGTPTSLAALKVANPAGVPFFAPYSGAMALREPFARNVFHVRASYNDETAAIVQQIRTTGHKRVAVVYNDDSYGAAGLAGVKRALALPENKAVALAVEASVPRNSTTVKAALSKVLPSKADSVVVISTYQTTAALVKEALAEGFTGQFYNVSFVGTKELADALGSAGGGVVVSQVMPFPHSMSSALTRDYEKLLKADGVTSFDYGSMEGYIAARIFVEGLKRAGRDLTREKLITALETMGSTDLGGFAVSFSPTNHVASKFVEMTVINSHGQVIREGHHHHHH”, the “soluble on expression in E. coli” value is “soluble”.

In the case of “MFKIKTIESLSDLTQLKKAYFDSSIVPLDGMWHFGFAPMAKHFGFYVNKNLVGFCCVNDDGYLLQYYLQPEFQLCSQELFTLISQQNSSVIGEVKGAFVSTAELNYQALCLDNSATFKVNSLMYQHNTKLADRNLEMIDMQIAGTEQLTAFVTFAAANIGAPEQWLTQYYGNLIERKELFGYWHKGKLLAAGECRLFDQYQTEYADLGMIVAQSNRGQGIAKKVLTFLTKHAATQGLTSICSTESNNVAAQKAIAHAGFTSAHRIVQFEFKHA”, the “soluble on expression in E. coli” value is listed as “soluble”.

With “MLQKDPCLDDILENSEKLENNSNKKNIDSIDTIKLSDIIEKMIEINSIVRIEKIFEEKIVSQNPVVNVVVNDGSARGLLSLWSEQISLLNELNEGDAILIENAHAPKKYKDRIHLALSKSGKISKIESDLPTIDELLKKSSAQRNDFSRKSISELKEGIGAELRGLIVAIHSKEPYFPVCDKCNKKMTLKKGYAVCKCGNKVDEEDENLKWLFLCTCTLDDGSGTIRVTLNNNTNYLDLEELKKIIIDDEEILDVLNNKLLGLDILTSGFTIYDEYLKDTAFRCNNWNKIDIMEEFNKKLKGLEHHHHHH”, the “soluble on expression in E. coli” value was “soluble”.

“MAHHHHHHMPARGCAPVDEQIAGTDTEGRRYRSVEEMWGRELQGNLYDAKTGWYGKSLQYWGSVPATVSGVLGGMDHVHDIDIRDSRAFICCLPERGTTRALDCGAGIGRITKSLLCHLYDVTDLLEPVASMLEKAKEELEGFPVGDFFQSSMETAKLQPKTYDLIVIQWAAIYLTDEDFVAFLVRCKEALTPKGYIFFKENCASDDEFIVDKEDSSLTRSDKHYKRIFAAAGIEVVKEAMQGDWPDDLLKVKMYALR”: the “soluble on expression in E. coli” value is recorded as “soluble”.

Take “MSLSDDTSVVQDYIKSRDALVVLEQKMPLRDAFGGRYADIFSRFPGVIGRDGFEYFYRYFKNHVAVDVGTATAVTTLRVQAYTSKDAYLINKYLLEMAEKRVNELNDRSRQDSLRYALAEVAGAEAKVKAASTALSKFRSKASLFDPDRQSNIQLELVAKLRGELIAKQAQLSQLRMLSPQNPQIPSLAASIGALEASIASEKGGVAGEKNSLSDRSVEYQRLALEQSFGEKLLASALTSLEQARADAERKQIYLERVAEPNEPDVAMEPKREGHHHHHH”: the “soluble on expression in E. coli” value is “soluble”.

As to “GPGSMTEKPAKEPPLPRDLKAQFDVLAGTRWDGVGDDADAAEQLSQLRQEWKALGNACYGKGYFLAAIRCYSRLLEVPGGDTAQIRSNRSAAYLQSPMLVGPSLALKDAEKAVELDPQWFKAHLRVGDAHRKRGHFAEAEAAYREALARQPECATALAGLRALQVESAGLPAAAATFPRGHAERTPYHNAPPSPRSLSSRTTAHAVAVAQAKEEELQLTQEQLVHKWKADISTREGRTGCRPRQASLSQADRQHGAAIKQALLARFRDKLESNGEFSAILRNRCEEAMLRGEGINYRDADKLRNTYSHATNGIGLGISSDAYKEYTGRVDHRTW”, the “soluble on expression in E. coli” value was “soluble”.

Turning to “MGYRIEMATRNPFDIDHKSKYLREAALEANLSHPETTPTMLTCPIDSGFLKDPVITPEGFVYNKSSILKWLETKKEDPQSRKPLTAKDLQPFPELLIIVNRFVETQTNYEKLKNRLVQNARVAARQKEYTEIPDIFLCPISKTLIKTPVITAQGKVYDQEALSNFLIATGNKDETGKKLSIDDVVVFDELYQQIKVYNFYRKREMQKNQIQPSVSSGFGFFSLNFLTSWLWGTEEKKEKTSSDMTY”, the “soluble on expression in E. coli” value is “not soluble”.

With “MLLQELHIYSEQSSSNTKVSIKNKDGEILFEYCYSNDAIPTFNPIELLRLSLEGDIGVLFQMKTSISQKSKKDDFRISCEQSRSETSRMNQ”, the “soluble on expression in E. coli” value is “not soluble”.

On to “NKDFEWSTTGTFSLNSNKLISLSGSIFKSDYDYFNTGTVEYSGQVADSHRVQVGESIGNFYGFKVVDVDSEGRWIYEDRNGELVNYKDFTHAPEDKHVIGNGLPKWYAGWNNTLRYKNFDLNVTMRGAFGFQIINGGRMNYENVKNSRFENRLKSVNDLVFGKHTLSPEVEPEFNSYYVEDGDYWKIDNITLGYSFGQVGKYIKSLRIYGSVLNALTITGYKGIDPEVSTDGLTPGYDTRDRYPSVRSFTFGVNVKF”, for which the “soluble on expression in E. coli” value is given as “not soluble”.

For the sequence “MGHHHHHHSHFRNCILGLAVGDALGMPVEGLSIENIRQLYGEVRDFLPSPYGDLNAGEWTDDTEQMVVLAESILETVYFDPENFAERLKRWFLETNSRRIGPSSTKAISNLMRGVHWTRAGVFSDTCGAAMRVAPIGLVYHFSLNLVERYAEISARVTHTGTAAIGGAVAVAVAIACNVLDFSDEEMLEEVLRRVEAYDNLLAEKIRYANEISDRDVEYAVEKLGNSISSLDVVPMAFYSYFAGKDFEESLIKAVNAGGDADSIAAICGAIKGAKGFAIPERWLEGLKDREFLEELATK”, the “soluble on expression in E. coli” value is on record as “not soluble”.

For “MSLESKPVVFHDVPQDHWAFEAISDLGNAGIIAGYGHGIFGLGDDVTREQVAALIYRSMEGIEEKEEYENPYGDLDEHGSTLFLEEILALTEMGIFQGDEQGNFRPKDTLTRAEMAQVIATAFDLEVKAPHSFNDVPANSWAKDAISAVQSNQIAAGIGQGKFAPEMKVTREQYAQFLYNALTNEHAEEGHHHHHH”, the “soluble on expression in E. coli” value was “soluble”.

As for “MECRLGCGACCIAPSITSFIPGMPNGKPAGVRCVQLNEENLCKLFGKAERPKVCHQFSACPDVCGSTSEQAIQTITELESMTLLEHHHHHH”, the “soluble on expression in E. coli” value is “not soluble”.

Turning to “SREGVLYDGDSLAYIIAKHRQQLGELQGGVAGTLMTNLAVEQAFERLGIPFARANVGDRYVSELLQQNDWYLGAENSGHIICRDKHTTGDGIISALQVLYALRDTGLTLADFMRDVPFF”, the “soluble on expression in E. coli” value is “not soluble”.

As to “MSLGYKQIRDVSVLCDFAANCTLSLNPGTGENAPGIGLYRSSKADSIPELRLSFSEQMPKTGKLEILVDGKPELDTNIAALKVRNNELVYVDEAGVAKLIGAMKNGQKLQLKLADKVSGYSLSGFVGGLIYLDEQQARDGTVAALQVKGTKPAPAAPDITLIETVEQIPEGIRKDFSDDAATCGGASPESFRLAGGFVTKIADGLNLVGLPCGAPGAYNQPYVFYSRYENRIVPVSLPVISDDGPTTTDSAWNIDWNNRTRTLTGFFKGRGIGDCGTYDVWKAVDSGEGRVSFVLKEERAKGDCDGNYAGGPQNWPASWPPKTKEGHHHHHH”, the “soluble on expression in E. coli” value is on record as “soluble”.

Regarding “MTLEEARKRVNELRDLIRYHNYRYYVLADPEISDAEYDRLLRELKELEERFPELKSPDSPTLQVGARPLEATFRPVRHPTRMYSLDNAFNLDELKAFEERIERALGRKGPFAYTVEHKVDGLSVNLYYEEGVLVYGATRGDGEVGEEVTQNLLTIPTIPRRLKGVPERLEVRGEVYMPIEAFLRLNEELEERGERIFKNPRNAAAGSLRQKDPRITAKRGLRATFYALGLGLEEVEREGVATQFALLHWLKEKGFPVEHGYARAVGAEGVEAVYQDWLKKRRALPFEADGVVVKLDELALWRELGYTARAPRFAIAYKFPAEEKETRLLDVVFQVGRTGRVTPVGILEPVFLEGSEVSRVTLHNESYIEELDIRIGDWVLVHKAGGVIPEVLRVLKERRTGEERPIRWPETCPECGHRLLKEGKVHRCPNPLCPAKRFEAIRHFASRKAMDIQGLGEKLIERLLEKGLVKDVADLYRLRKEDLVGLERMGEKSAQNLLRQIEESKKRGLERLLYALGLPGVGEVLARNLAARFGNMDRLLEASLEELLEVEEVGELTARAILETLKDPAFRDLVRRLKEAGVEMEAKEKGGEALKGLTFVITGELSRPREEVKALLRRLGAKVTDSVSRKTSYLVVGENPGSKLEKARALGVPTLTEEELYRLLEARTGKKAEELV”, the “soluble on expression in E. coli” value is “soluble”.

Regarding “AHHHHHHGSPRWGRGRRRKMRMIEFIPYARHFYPALPRFGPPKPPIIMTYEEFEALRLVDYEGLTQEEAGKRMGVSRGTIWRALTSARKKVAQMLVEGRELIILPQGNEVIKSDEE”, the “soluble on expression in E. coli” value is “not soluble”.

These data come from the DeepSol protein solubility set.
